Reference: patent US20180140679A1, “MODULATION OF AXL RECEPTOR ACTIVITY IN COMBINATION WITH CYTOREDUCTIVE THERAPY” (THE BOARD OF TRUSTEES OF THE LELAND STANFORD JUNIOR …, priority 2016, published 2018)

What was measured:
human Gas6 = target: T1, human Gas6 (Homo sapiens, UniProt Q14393); assay: Kinetic Exclusion Assay (KinExA), Gas6-Axl binding, human Gas6
T1 sequence (Q14393 31-678): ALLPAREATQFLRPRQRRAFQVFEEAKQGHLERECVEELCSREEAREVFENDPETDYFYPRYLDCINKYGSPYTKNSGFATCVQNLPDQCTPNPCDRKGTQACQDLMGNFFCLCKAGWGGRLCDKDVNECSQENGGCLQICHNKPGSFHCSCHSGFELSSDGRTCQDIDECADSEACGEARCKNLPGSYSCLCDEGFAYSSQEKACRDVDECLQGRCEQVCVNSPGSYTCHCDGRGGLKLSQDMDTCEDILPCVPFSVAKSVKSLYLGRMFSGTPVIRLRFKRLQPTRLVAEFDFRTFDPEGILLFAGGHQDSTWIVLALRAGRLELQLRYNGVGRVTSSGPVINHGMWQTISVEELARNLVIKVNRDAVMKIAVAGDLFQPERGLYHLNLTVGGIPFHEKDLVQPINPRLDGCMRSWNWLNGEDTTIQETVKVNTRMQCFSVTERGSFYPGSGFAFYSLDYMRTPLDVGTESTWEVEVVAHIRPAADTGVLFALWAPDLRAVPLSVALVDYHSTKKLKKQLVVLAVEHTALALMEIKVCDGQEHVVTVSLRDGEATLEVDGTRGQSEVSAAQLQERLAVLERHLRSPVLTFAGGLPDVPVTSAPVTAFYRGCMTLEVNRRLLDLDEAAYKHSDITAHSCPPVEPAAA
Procedure: Equilibrium binding and association rate constants for all Gas6-Axl interactions were measured on a KinExA3200 instrument (Sapidyne Instruments Inc. Boise, Id.) as previously described. For equilibrium binding studies, three independent titrations were completed for each Axl Ig1 or Axl Fc fusion unless otherwise noted. […] After the appropriate incubation time, reactions were flowed over MYD1 Fc coated beads and captured free Gas6 was probed using an anti-6×HIS Dylight 649 antibody (#200-343-382, Rockland Immunochemicals Inc., Pottstown, Pa.). Each sample was measured twice and data from the three independent equilibrium binding experiments were globally analyzed using n-curve analysis in the KinExA Pro 3.6.2 software (Sapidyne Instruments Inc. Boise, Id.) to obtain the Kd value. To analyze the association rate of the interactions, the direct inject method was used. For these experiments, 1 μM Axl was serially diluted 1:2.5, and equal volumes of each Axl sample and 500 nM Gas6 were briefly mixed and flowed over the capture beads. Free Gas6 was detected as described and the data was fit using the KinExA Pro 3.6.2 software to obtain the association rate (kon) of the interaction. The dissociation rate (koff) was calculated as the product of the Kd and the kon.

[1] = tested on: Axl and FLT3 phosphorylation in AML cells; assay: Western blot of Axl and FLT3 phosphorylation in AML cells; format: cell-based, human
Source text: Cell lysates subjected to sodium dodecyl sulfate polyacrylamide gel electrophoresis followed by transfer to nitrocellulose membrane. The membranes were then probed with primary antibodies against total Axl (AF154, R&D Systems, INC., Minneapolis, Minn.), phospho-Axl (T702; #5724, CST, Danvers, Mass.), total Akt (#4691 CST, Danvers, Mass.), phosphor-Akt (#4060, CST, Danvers, Mass.), anti-MERTK (#ab52968, Abcam, Cambridge, Mass.), phospho-MERTK (#ab14921 Abcam, Cambridge, Mass.), anti-Tyro3 (#5585, CST, Danvers, Mass.), phospho-Tyro3 (#orb186274, Biorbyt LLC, Berkely, Calif.), Bcl-2 Family Antibody Sampler Kit (#9934, CST, Danvers, Mass.), anti-Chk2 (#sc-5278, Santa Cruz Biotech, INC., Santa Cruz, Calif.), anti-XRCC1 (#2735, CST, Danvers, Mass.), anti-γH2AX (Merck Millipore #05636, Darmstadt, Germany), anti-phospho-ATM (#ab81292, Abcam, Cambridge, Mass.), anti-ATM (#ab78, Abcam, Cambridge, Mass.), anti phospho-ATR (#2853, CST, Danvers, Mass.), anti-ATR (#2790, CST, Danvers, Mass.), anti-Phospho Chk1 (#12302, CST, Danvers, Mass.), anti-Phospho Chk2 (#2197, CST, Danvers, Mass.) and anti-RPA32 (#2208, CST, Danvers, Mass.) at 4° C. overnight. The blots were then washed and probed with HRP conjugated anti-goat (#sc-2020, Santa Cruz Biotech, INC., Santa Cruz, Calif.), or HRP conjugated anti-rabbit (#A16110, Thermo Fisher Scientific, Walthan, Mass.) as appropriate. The blots were developed with Bio-Rad Western C developing reagent (#170-5060 Bio-Rad, Hercules, Calif.) and visualized with Chemidoc digital imager (#1708280, Bio-Rad, Hercules, Calif.).

free, circulating Gas6 [2] = target: T2, free, circulating Gas6 (Mus musculus, UniProt Q61592); details: as previously determined using the same assay; cited from earlier work
T2 construct: from tissue; host or cells: mouse serum (nude nu/nu mice)
T2 sequence (Q61592 28-674): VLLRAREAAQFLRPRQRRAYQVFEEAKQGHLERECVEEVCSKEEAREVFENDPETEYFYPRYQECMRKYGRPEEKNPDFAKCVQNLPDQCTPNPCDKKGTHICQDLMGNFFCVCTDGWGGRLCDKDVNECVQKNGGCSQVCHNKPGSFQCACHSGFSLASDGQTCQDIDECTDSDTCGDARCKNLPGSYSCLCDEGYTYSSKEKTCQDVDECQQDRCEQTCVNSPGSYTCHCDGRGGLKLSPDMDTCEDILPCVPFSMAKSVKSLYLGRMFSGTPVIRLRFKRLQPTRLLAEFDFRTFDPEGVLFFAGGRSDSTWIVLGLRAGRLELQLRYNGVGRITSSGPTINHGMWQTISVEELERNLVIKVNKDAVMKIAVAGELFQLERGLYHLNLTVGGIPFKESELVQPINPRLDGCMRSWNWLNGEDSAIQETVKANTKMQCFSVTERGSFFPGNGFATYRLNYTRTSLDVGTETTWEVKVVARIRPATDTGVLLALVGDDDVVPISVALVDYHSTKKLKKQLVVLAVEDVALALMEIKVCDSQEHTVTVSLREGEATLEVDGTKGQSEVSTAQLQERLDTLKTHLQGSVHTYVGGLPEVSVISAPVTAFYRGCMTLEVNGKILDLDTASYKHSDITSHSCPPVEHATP

free, circulating Gas6 [3] = target: T2, free, circulating Gas6; assay: In vivo Gas6 serum ELISA (sequestration of endogenous Gas6); details: single 0.5 mg/kg dose via tail vein, up to 36 hours
Procedure: The amount of free, circulating Gas6 (i.e. not neutralized by the decoy receptor) was then quantified.
All doses were formulated in a 200 μl volume. Two mice were analyzed per condition and untreated mice were used to determine baseline Gas6 levels. At 2, 12, 24, and 36 h post-administration, retro-orbital bleeds were performed to obtain blood samples from which serum was isolated and free Gas6 was measured as previously described. The amount of free Gas6 in each sample was determined using a sandwich ELISA. In this assay, MYD1 Fc was used as a capture reagent in order to ensure the detection of free, unbound Gas6, and not Gas6/Axl Fc complexes. Detection of Gas6 was carried out using a biotinylated polyclonal anti-mouse Gas6 antibody (BAF986, R&D Systems, INC., Minneapolis, Minn.) and streptavidin HRP (#4800-30-06 Trevigen Inc., Gaithersburg, Md.).

koff (human Gas6; calculated as the product of the Kd and the kon): 1.0 10^−5 s^−1
kon (human Gas6; direct inject method): 2.3 10^7 M^−1 s^−1
B1: MYD1 Fc: Fc fusion of the first generation Axl decoy receptor MYD1 (protein)
chain: APRGTQAEESPFVSNPGNITGARGLTGTLRCQLQVQGEPPEVHWLRDGQILELADSTQTQVPLGEDEQGDWIVASQLRITSLQLSDTGQYQCLVFLGHQTFVSQPGYVRLEGLPYFLEEPEDRTVAANTPFNLSCQAQGPPEPVDLLWLQDAVPLATAPGHGPQRSLHVPGLNKTSSFSCEAHNAKGVTTSRTATITVLPQQPRNLHLVSRQPTELEVAWTPGLSGIYPLTHCTLQAVLSNDGMGIQAGEPDPPEEPLTSQASVPPHQLRLGSLHPHTPYHIRVACTSSQGPSSWTHWLPVETPEGVPLGPPENISATRNGSQAFVHWQEPRAPLQGTLLGYRLAYQGQDTPEVLMDIGLRQEVTLELQGDGSVSNLTVCVAAYTAAGDGPWSLPVPLEAWRPGQAQPVHQLVKEPSTPAFS
modifications: left off: a dimerising Fc or GST
Axl and FLT3 phosphorylation [1]: inhibited Axl and FLT3 phosphorylation
in vivo IC50 (free, circulating Gas6 [2]): 0.5 mg/kg
free, circulating Gas6 in serum (free, circulating Gas6 [3]): rapidly eliminated free Gas6 upon administration
